Experimental data as given in publication PMC3964825 (Biochemistry, 2013).
Where “and” joins values, the source holds several entries; their conditions need not be identical. Equal values may be shown once.

Key:
native MS = biological target: the molecule itself; assay: native MS
native gel or EMSA = biological target: the molecule itself; assay: native gel or EMSA

B1: EZH2-EED heterodimer (FLAG-EZH2–6×HIS-EED) (complex)
chain 1: not shown
chain 2: not shown
- stoichiometry N (native MS): 2 and 3
- stoichiometry N (native gel or EMSA): ≤ 4
